Measurements taken from patent US20110300138A1 (published 2011).

Assays:
[1] = target: TSH receptor (TSHR), full length human, coated on tubes (human) (UniProt P16473); assay: inhibition of 125I-TSH binding to TSHR coated tubes; 0.001 µg/mL, diluted in HBD serum pool
[2] = target: TSHR260-alkaline phosphatase (TSHR260-AP) (human) (UniProt P05187); assay: TSHR260-AP bridge ELISA, full length TSHR on wells; 0.005 µg/mL, diluted in HBD
[3] = target: TSHR260-alkaline phosphatase (TSHR260-AP) (human) (UniProt P05187); assay: TSHR260-AP bridge ELISA, full length TSHR on wells; 10 µg/mL, diluted in HBD
[4] = target: human TSH receptor (full length), coated on tubes (human) (UniProt P16473); assay: inhibition of 125I-K1-70 Fab (competitor) binding to TSHR coated tubes; 0.003 µg/mL in HBD serum pool
[5] = target: human TSH receptor (full length), coated on tubes (human) (UniProt P16473); assay: inhibition of 125I-K1-70 Fab (competitor) binding to TSHR coated tubes; 0.03 µg/mL in HBD serum pool
[6] = target: TSHR260-alkaline phosphatase (TSHR260-AP) (human) (UniProt P05187); assay: TSHR260-AP bridge ELISA, full length TSHR on wells; 250 µg/mL, diluted in HBD
[7] = target: TSHR260-alkaline phosphatase (TSHR260-AP) (human) (UniProt P05187); assay: TSHR260-AP bridge ELISA, full length TSHR on wells; 0.005 µg/mL, diluted in assay buffer
[8] = target: TSH receptor (TSHR), full length human, coated on tubes (human) (UniProt P16473); assay: inhibition of 125I-TSH binding to TSHR coated tubes; 0.003 µg/mL, diluted in HBD serum pool
[9] = target: human thyroid stimulating hormone receptor (TSHR), full length (human) (UniProt P16473); assay: 125I-K1-18 Fab competition, TSHR coated tubes; 0.01 µg/mL in HBD
[10] = target: TSHR260-alkaline phosphatase (TSHR260-AP) (human) (UniProt P05187); assay: TSHR260-AP bridge ELISA, full length TSHR on wells; 10 µg/mL, diluted in assay buffer
[11] = target: human thyroid stimulating hormone receptor (TSHR), full length (human) (UniProt P16473); assay: 125I-K1-18 Fab competition, TSHR coated tubes; 0.001 µg/mL in assay buffer
[12] = target: TSH receptor (TSHR) coated on tubes (human) (UniProt P16473); assay: inhibition of 125I-K1-70 IgG binding to TSHR coated tubes; sample 0.01 µg/mL in HBD serum pool
[13] = target: TSHR260-alkaline phosphatase (TSHR260-AP) (human) (UniProt P05187); assay: TSHR260-AP bridge ELISA, full length TSHR on wells; 0.1 µg/mL, diluted in HBD
[14] = target: TSHR260-alkaline phosphatase (TSHR260-AP) (human) (UniProt P05187); assay: TSHR260-AP bridge ELISA, full length TSHR on wells; 0.1 µg/mL, diluted in assay buffer
[15] = target: TSHR260-AP (fusion protein consisting of a fragment of human TSHR, amino acids 22-260, with alkaline phosphatase) (human); assay: bridging ELISA: full length TSHR on wells, TSHR260-AP in liquid phase; IgG 0.01 µg/mL in HBD serum
[16] = target: TSHR260-AP (fusion protein consisting of a fragment of human TSHR, amino acids 22-260, with alkaline phosphatase) (human); assay: bridging ELISA: full length TSHR on wells, TSHR260-AP in liquid phase; IgG 10 µg/mL in HBD serum
[17] = target: TSHR260-AP (fusion protein consisting of a fragment of human TSHR, amino acids 22-260, with alkaline phosphatase) (human); assay: bridging ELISA: full length TSHR on wells, TSHR260-AP in liquid phase; IgG 0.5 µg/mL in HBD serum
[18] = target: TSHR260-AP (fusion protein consisting of a fragment of human TSHR, amino acids 22-260, with alkaline phosphatase) (human); assay: bridging ELISA: full length TSHR on wells, TSHR260-AP in liquid phase; IgG 1 µg/mL in HBD serum
[19] = target: TSHR260-AP (fusion protein consisting of a fragment of human TSHR, amino acids 22-260, with alkaline phosphatase) (human); assay: bridging ELISA: full length TSHR on wells, TSHR260-AP in liquid phase; IgG 0.01 µg/mL in HBD serum; remark: listed apart in the source
[20] = target: TSHR260-AP (fusion protein consisting of a fragment of human TSHR, amino acids 22-260, with alkaline phosphatase) (human); assay: bridging ELISA: full length TSHR on wells, TSHR260-AP in liquid phase; IgG 10 µg/mL in HBD serum; remark: listed apart in the source
[21] = target: TSHR260-AP (fusion protein consisting of a fragment of human TSHR, amino acids 22-260, with alkaline phosphatase) (human); assay: bridging ELISA: full length TSHR on wells, TSHR260-AP in liquid phase; IgG 0.05 µg/mL in HBD serum
[22] = target: TSHR260-AP (fusion protein consisting of a fragment of human TSHR, amino acids 22-260, with alkaline phosphatase) (human); assay: bridging ELISA: full length TSHR on wells, TSHR260-AP in liquid phase; IgG 0.1 µg/mL in HBD serum
[23] = target: TSHR260-AP (fusion protein consisting of a fragment of human TSHR, amino acids 22-260, with alkaline phosphatase) (human); assay: as above; remark: listed apart in the source
[24] = target: TSHR260-AP (fusion protein consisting of a fragment of human TSHR, amino acids 22-260, with alkaline phosphatase) (human); assay: bridging ELISA: full length TSHR on wells, TSHR260-AP in liquid phase; IgG 1 µg/mL in HBD serum; remark: listed apart in the source
[25] = target: TSHR260-AP (fusion protein consisting of a fragment of human TSHR, amino acids 22-260, with alkaline phosphatase) (human); assay: bridging ELISA: full length TSHR on wells, TSHR260-AP in liquid phase; IgG 0.005 µg/mL in HBD serum
[26] = target: TSHR260-AP (fusion protein consisting of a fragment of human TSHR, amino acids 22-260, with alkaline phosphatase) (human); assay: bridging ELISA: full length TSHR on wells, TSHR260-AP in liquid phase; IgG 0.5 µg/mL in HBD serum; remark: listed apart in the source
[27] = target: TSHR260-AP (fusion protein consisting of a fragment of human TSHR, amino acids 22-260, with alkaline phosphatase) (human); assay: bridging ELISA: full length TSHR on wells, TSHR260-AP in liquid phase; IgG 0.05 µg/mL in HBD serum; remark: listed apart in the source
[28] = target: TSHR260-AP (fusion protein consisting of a fragment of human TSHR, amino acids 22-260, with alkaline phosphatase) (human); assay: bridging ELISA: full length TSHR on wells, TSHR260-AP in liquid phase; IgG 0.005 µg/mL in HBD serum; remark: listed apart in the source
[29] = target: TSH receptor (TSHR), full length human, coated on tubes (human) (UniProt P16473); assay: binding of 125I-TSH to TSHR coated tubes, in assay buffer, no competitor
[30] = target: TSH receptor (full length human TSHR) coated on tubes (human) (UniProt P16473); assay: 125I-TSH binding to TSHR coated tubes, in assay buffer, no inhibitor
[31] = target: TSH receptor (TSHR), full length human, coated on tubes (human) (UniProt P16473); assay: binding of 125I-TSH to TSHR coated tubes, in HBD serum pool, no competitor
[32] = target: TSHR coated tubes (full length TSHR) (human) (UniProt P16473); assay: 125I-TSH binding to TSHR coated tubes in assay buffer only (no competitor)
[33] = target: TSH receptor (full length human TSHR) coated on tubes (human) (UniProt P16473); assay: 125I-TSH binding to TSHR coated tubes, in HBD serum pool, no inhibitor
[34] = target: TSH receptor (TSHR), full length human, coated on tubes (human) (UniProt P16473); assay: binding of 125I-TSH to TSHR coated tubes, in assay buffer, no competitor; remark: listed apart in the source
[35] = target: T1, TSHR260 (human, UniProt P16473 22-260); assay: Scatchard analysis, TSHR260 coated tubes (mean±SD, n=3)
T1 construct: Expressed in insect cells; coated on tubes or wells by way of a mouse TSHR MAb (14C4 F(ab')2 in the stability ELISA); also called TSHR fragment of amino acids 22-260

[36] = target: T2, full length human TSHR, detergent-solubilised, coated on tubes or ELISA plate wells (human, UniProt P16473 22-764); assay: Scatchard analysis, 125I-labelled antibody on full length TSHR coated tubes (mean±SD, n=3)
T2 construct: Full length receptor expressed in CHO cells, solubilised with detergent and held on the plastic by a mouse MAb to the C-terminus; The leader 1-21 is stated for the TSHR260 construct of the same receptor; also called TSH receptor; TSHR (full length)

[37] = target: T2, full length human TSHR, …; assay: Scatchard analysis, full length TSHR coated tubes (mean±SD, n=3)
[38] = target: T3, human TSH receptor, full length, detergent-solubilised, coated on tubes or ELISA plate wells (human, UniProt P16473 22-764); assay: TSHR binding affinity (summary table; Scatchard analysis, TSHR coated tubes)
T3 construct: Full length recombinant receptor expressed in CHO cells, solubilised and coated via a C-terminal antibody; also called wild type TSHR; full length TSHR

Molecule: M22 Fab
- Inhibition of binding (%) [1]: -11.2%
- Mean absorbance at 405 nm (absorbance at 405 nm) [2]: -0.013
- Mean absorbance at 405 nm (absorbance at 405 nm) [3]: 0.01
- Inhibition of binding (%) [4]: 11.5%
- Inhibition of binding (%) [5]: 66.8%
- Mean absorbance at 405 nm (absorbance at 405 nm) [6]: 0.031
- Mean absorbance at 405 nm (absorbance at 405 nm) [7]: -0.004
- Inhibition of binding (%) [8]: -7.9%
- Inhibition of binding (%) [9]: 20.4%
- Mean absorbance at 405 nm (absorbance at 405 nm) [10]: 0.034
- Inhibition of binding (%) [11]: -0.7%
- Inhibition of binding (%) [12]: 34%
- Mean absorbance at 405 nm (absorbance at 405 nm) [13]: -0.007
- Mean absorbance at 405 nm (absorbance at 405 nm) [14]: 0.015

Molecule: M22 IgG (human monoclonal thyroid stimulating autoantibody, hMAb TSHR1)
- Mean absorbance at 405 nm (absorbance at 405 nm) [15]: 0.064
- Mean absorbance at 405 nm (absorbance at 405 nm) [16]: 1.36
- Mean absorbance at 405 nm (absorbance at 405 nm) [17]: 1.09
- Mean absorbance at 405 nm (absorbance at 405 nm) [18]: 1.09
- Mean absorbance at 405 nm (absorbance at 405 nm) [19]: 0.043
- Mean absorbance at 405 nm (absorbance at 405 nm) [20]: 1.27
- Mean absorbance at 405 nm (absorbance at 405 nm) [21]: 0.332
- Mean absorbance at 405 nm (absorbance at 405 nm) [22]: 0.548
- Mean absorbance at 405 nm (absorbance at 405 nm) [23]: 0.599
- Mean absorbance at 405 nm (absorbance at 405 nm) [24]: 1.17
- Mean absorbance at 405 nm (absorbance at 405 nm) [25]: 0.032
- Mean absorbance at 405 nm (absorbance at 405 nm) [26]: 1.02
- Mean absorbance at 405 nm (absorbance at 405 nm) [27]: 0.292
- Mean absorbance at 405 nm (absorbance at 405 nm) [28]: 0.011

Molecule: ^125I-TSH (ligand)
- ^125I-TSH binding (%) [29]: 13.4%
- % binding [30]: 10.8%
- ^125I-TSH binding (%) [31]: 11.5%
- % of ^125I-TSH binding [32]: 12.4%
- % binding [33]: 12.4%
- ^125I-TSH binding (%) [34]: 11%

B1: K1-70 IgG (antibody, V domains shown)
VH: EVQLVQSGAEVKKPGQSLKISCKASGYSLTDNWIGWVRQKPGKGLEWMGIIYPGDSDTRYSPSFQGQVTISADKSINTAYLQWSSLKASDTAIYYCVGLDWNYNPLRYWGPGTLVTVSS
VL: QSVLTQPPSVSAAPGQKVTISCSGSSSDIGSNYVSWYQQFPGTAPKLLIYDNNKRPSAIPDRFSGSKSGTSATLGITGLQTGDEADYYCGTWDSRLGIAVFGGGTQLTVLG
modifications: N-terminus blocked; deblocked with pyroglutamate aminopeptidase for Edman sequencing
notes: Human IgG1 lambda purified from hetero-hybridoma supernatant; also called human MAb K1-70
- Ka [35]: 3.1e+10 M⁻¹
- Ka [36]: 3.9e+10 M⁻¹

B2: K1-70 Fab (Fab, V domains shown)
VH: B1 VH
VL: B1 VL
modifications: N-terminus blocked; deblocked with pyroglutamate aminopeptidase for Edman sequencing
- Ka [37]: 2.3e+10 M⁻¹
- Ka [35]: 9.3e+09 M⁻¹

B3: K1-18 Fab (Fab, V domains shown)
VH: EVQLVQSGAEVKKPGESLKISCKGSGYSFTNYWIGWVRQMPGKGLEWMGIIYPYDSDTRYSPSFEGQVTISADKSIRTAYLHWSSLKASDTAMYYCVRPRDGSYPYDAFDIWGQGTMVTVSS
VL: EIVLTQSPGTLSLSPGERATLSCRASQSVSNNYLAWYQQKPGQAPRLLIYGASSRATGIPDRFSGSGSGTDFTLTISRLEPEDFAVYYCQHCGSSLRAFGQGTKVEIKR
- Ka [37]: 1.8e+09 M⁻¹

B4: K1-18 Fab (Fab, V domains shown)
VH: B3 VH
VL: B3 VL
notes: also called Fab of K1-18
- Ka [38]: 1.3e+09 M⁻¹

B5: K1-18 IgG (human monoclonal TSHR autoantibody with stimulating activity) (antibody, V domains shown)
VH: B3 VH
VL: B3 VL
notes: IgG1 kappa purified from hetero-hybridoma supernatant; also called stimulating MAb K1-18 (IgG1 kappa)
- Ka [38]: 7e+09 M⁻¹
